Measurements: US20260174875A1 (Novo Nordisk A/S, priority 2023, published 2026)
Square brackets hold non-standard residues; d marks the D form. Chem. 27 = not defined here; Chem. 28 = not defined here; Chem. 29 = not defined here; Aib = CC(C)(N)C(=O)O

B1: Compound 100 (peptide)
peptide: H[Aib]HGTFTSDYSILLEEQAAREFIEWLLAGGPSK(Chem. 28)GAPPPSGGGEASHLSTAQTARLSAELHRLADLPRTETGSGSP-NH2
modifications: reading uncertain
B2: Compound 108 (peptide)
peptide: H[Aib]HGTFTSDYSILLEEQAAREFIEWLLAGGPSSGALQAPGQAPLASHLSTAQTARLSAELHK(Chem. 28)LATLPRTETGSGSP-NH2
modifications: reading uncertain
B3: Compound 104 (peptide)
peptide: H[Aib]HGTFTSDYSILLEEQAAREFIEWLLAGGPSSGAGQAPGQAPGASHLSTAQTARLSAELHK(Chem. 27)LATLPRTETGSGSP-NH2
modifications: reading uncertain
B4: Compound 11 (peptide)
peptide: Y[Aib]EGTFTSDYSILLEEQAAREFIEWLLAGGPSK(Chem. 29)GEASELSTAALGRLSAELHELATLPRTETGSGSP-NH2
modifications: reading uncertain
B5: Compound 102 (peptide)
peptide: Y[Aib]EGTFTSDYSILLEEQAAREFIEWLLAGGPSSGAGQAPGQAPGASHLSTAQTQRLSAELHQLK(Chem. 28)TLPRTETGSGSP-NH2
modifications: reading uncertain
B6: Compound 101 (peptide)
peptide: H[Aib]HGTFTSDYSILLEEQAAREFIEWLLAGGPSK(Chem. 28)GAPPPSGGGEASHLSTAQTARLSAELHQLATLPRTETGSGSP-NH2
modifications: reading uncertain
B7: Compound 99 (peptide)
peptide: Y[Aib]EGTFTSDYSILLEEQAAREFIEWLLAGGPSSGALQAPGQAPLASHLSTAQTQRLSAELHKLATLPRTETGSGSP-NH2
modifications: not fully specified (residue 62)

Key:
Assay in all cases: cell-based or functional assay
human GLP-1 receptor [1] = molecular target: T1, human GLP-1 receptor (human, UniProt P43220 24-463)
human GIP receptor [2] = molecular target: T2, human GIP receptor (human, UniProt P48546 22-466)
T2 sequence (looked up): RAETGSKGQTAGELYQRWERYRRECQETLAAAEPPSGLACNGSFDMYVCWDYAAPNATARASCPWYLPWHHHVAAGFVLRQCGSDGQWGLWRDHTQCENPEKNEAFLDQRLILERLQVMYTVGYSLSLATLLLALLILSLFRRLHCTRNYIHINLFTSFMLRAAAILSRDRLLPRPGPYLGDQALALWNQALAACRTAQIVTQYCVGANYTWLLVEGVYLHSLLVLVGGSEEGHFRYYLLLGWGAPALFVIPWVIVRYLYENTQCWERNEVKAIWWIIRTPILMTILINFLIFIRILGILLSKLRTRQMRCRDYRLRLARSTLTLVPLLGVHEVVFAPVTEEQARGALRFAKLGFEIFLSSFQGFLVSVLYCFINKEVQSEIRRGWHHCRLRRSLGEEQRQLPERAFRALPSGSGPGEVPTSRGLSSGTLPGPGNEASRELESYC

[3] = molecular target: T3, human amylin-3(a) receptor (human, UniProt P30988 25-474; O60896 24-148)
T3 sequence (looked up) 1: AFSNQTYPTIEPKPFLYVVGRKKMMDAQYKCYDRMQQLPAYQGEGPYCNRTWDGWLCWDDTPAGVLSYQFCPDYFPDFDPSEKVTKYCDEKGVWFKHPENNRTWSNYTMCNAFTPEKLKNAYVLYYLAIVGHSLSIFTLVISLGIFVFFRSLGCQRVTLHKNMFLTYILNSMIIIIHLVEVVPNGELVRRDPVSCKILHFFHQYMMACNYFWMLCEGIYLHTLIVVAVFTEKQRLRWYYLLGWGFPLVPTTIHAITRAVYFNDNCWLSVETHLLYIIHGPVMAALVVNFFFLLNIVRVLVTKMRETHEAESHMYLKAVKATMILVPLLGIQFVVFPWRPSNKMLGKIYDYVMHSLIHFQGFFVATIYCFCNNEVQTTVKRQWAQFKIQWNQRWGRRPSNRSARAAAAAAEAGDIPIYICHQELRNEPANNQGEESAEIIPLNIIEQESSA
T3 sequence (looked up) 2: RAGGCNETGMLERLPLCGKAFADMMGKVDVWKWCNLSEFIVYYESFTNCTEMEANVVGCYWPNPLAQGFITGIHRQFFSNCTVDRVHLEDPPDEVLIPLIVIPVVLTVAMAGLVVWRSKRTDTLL

human GLP-1 receptor [4] = molecular target: T1, human GLP-1 receptor; remark: listed apart in the source
human GIP receptor [5] = molecular target: T2, human GIP receptor; remark: listed apart in the source
[6] = molecular target: T3, human amylin-3(a) receptor; remark: listed apart in the source

hGLP-1R Potency, no HSA, EC50 [pM] (human GLP-1 receptor [1])	hGIPR Potency, no HSA, EC50 [pM] (human GIP receptor [2])	hAMYR3 Potency, no HSA, EC50 [pM] [3] [pM]	hGLP-1R Potency, 1% HSA, EC50 [pM] (human GLP-1 receptor [4])	hGIPR Potency, 1% HSA, EC50 [pM] (human GIP receptor [5])	hAMYR3 Potency, 1% HSA, EC50 [pM] [6] [pM]	Binder
5.85	3.95	3.05	307	217	210	B1
4.57	4.01	2.48	15	11.4	60	B2
4.16	3.57	1.49	19.1	17.3	293	B3
10.4	1.69	12.8	204	58.3	211	B4
11	2.24	3.26	47	12.2	134	B5
3.24	1.87	3.08	179	129	95.5	B6
16.7	2.09	2.82	36.2	7.41	129	B7
